Assay [1] addresses biotinylated human IL-2 (amino acids 1-133, C-terminal biotin acceptor peptide) (human) (UniProt P60568). The experiment in a line: BLI; same set-up as a3; equilibrium titration, first-order fit (Supplemental Figure 4A-C, Supplemental Table 4). For orientation: BLI is a label-free optical method that tracks binding on a fibre tip over time.
The target of assay [2] is T1, biotinylated human IL-2Rβ ectodomain (amino acids 1-214) (human) (UniProt P14784).
T1 sequence (chain, biotin on the biotin acceptor peptide (BirA ligase)): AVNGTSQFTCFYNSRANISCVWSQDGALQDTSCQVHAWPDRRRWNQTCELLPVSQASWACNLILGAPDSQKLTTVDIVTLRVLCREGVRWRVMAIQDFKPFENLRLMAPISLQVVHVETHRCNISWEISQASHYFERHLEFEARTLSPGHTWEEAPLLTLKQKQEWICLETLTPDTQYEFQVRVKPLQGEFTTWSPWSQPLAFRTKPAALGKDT
The assay is described as above.

For assay [3], the target named is biotinylated human IL-2 (amino acids 1-133, C-terminal biotin acceptor peptide) (human) (UniProt P60568). Briefly: BLI; same set-up as a5; equilibrium titration, first-order fit (Supplemental Figure 6C,D, Supplemental Table 5).
For assay [4] the target is unchanged. Briefly: BLI; same set-up as a1; equilibrium titration of the response at the end of the association phase, first-order fit (Figures 2 and 3, Supplemental Table 1).
Assay [5] addresses T1, biotinylated human IL-2Rβ ectodomain (amino acids 1-214) (human). The assay is described as above.
The target of assay [6] is biotinylated human IL-2 (amino acids 1-133, C-terminal biotin acceptor peptide) (human) (UniProt P60568). Briefly: BLI; biotinylated human IL-2 or IL-2Rβ on streptavidin tips; engineered 602 IC variants and controls in PBSA; kinetic fit, 1:1 binding model (Supplemental Figure 5, Supplemental Table 4).
Assay [7] concerns the target T1, biotinylated human IL-2Rβ ectodomain (amino acids 1-214) (human). The assay is described as above.
Assay [8] addresses biotinylated human IL-2 (amino acids 1-133, C-terminal biotin acceptor peptide) (human) (UniProt P60568). Briefly: BLI; biotinylated human IL-2, IL-2Rα or IL-2Rβ on streptavidin tips (Octet Red96); soluble analyte in PBSA (PBS pH 7.2, 0.1% BSA), 300 s association; kinetic fit, 1:1 binding model; IL-2/602 Cx 2:1 by the legend (Supplemental Figure 2, Supplemental Table 1).
For assay [9], the target named is biotinylated human IL-2Rα ectodomain (amino acids 1-217) (human). The assay is described as above.
Assay [10] has as its target T1, biotinylated human IL-2Rβ ectodomain (amino acids 1-214) (human). The description is as above.
The target in assay [11] is biotinylated human IL-2Rα ectodomain (amino acids 1-217) (human). Briefly: BLI; same set-up as a1; equilibrium titration of the response at the end of the association phase, first-order fit (Figures 2 and 3, Supplemental Table 1).
Assay [12] has as its target biotinylated mouse IL-2Rβ (mouse) (UniProt P16297). The experiment in a line: BLI; same set-up as a7; equilibrium titration, first-order fit (Supplemental Figure 6G,H, Supplemental Table 1).
Assay [13] deals with biotinylated mouse IL-2Rα (mouse) (UniProt P01590). Briefly: BLI; biotinylated mouse IL-2Rα or IL-2Rβ on streptavidin tips; ICs or 602 Ab in PBSA; kinetic fit, 1:1 binding model (Supplemental Figure 6E,F, Supplemental Table 1).
Assay [14] has as its target biotinylated mouse IL-2Rβ (mouse) (UniProt P16297). Described as above.

Sequence of IL-2/602 complex (human IL-2 mixed with 602 antibody) (VH): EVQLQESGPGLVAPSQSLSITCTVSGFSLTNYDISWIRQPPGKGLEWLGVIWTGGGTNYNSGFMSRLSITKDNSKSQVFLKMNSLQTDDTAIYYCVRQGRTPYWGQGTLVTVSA
Sequence of IL-2/602 complex (human IL-2 mixed with 602 antibody) (VL): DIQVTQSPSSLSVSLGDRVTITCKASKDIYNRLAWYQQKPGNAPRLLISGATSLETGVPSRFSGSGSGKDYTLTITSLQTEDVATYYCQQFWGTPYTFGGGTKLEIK
Sequence of biotinylated mouse IL-2Rβ (mouse) (P16297 27-539): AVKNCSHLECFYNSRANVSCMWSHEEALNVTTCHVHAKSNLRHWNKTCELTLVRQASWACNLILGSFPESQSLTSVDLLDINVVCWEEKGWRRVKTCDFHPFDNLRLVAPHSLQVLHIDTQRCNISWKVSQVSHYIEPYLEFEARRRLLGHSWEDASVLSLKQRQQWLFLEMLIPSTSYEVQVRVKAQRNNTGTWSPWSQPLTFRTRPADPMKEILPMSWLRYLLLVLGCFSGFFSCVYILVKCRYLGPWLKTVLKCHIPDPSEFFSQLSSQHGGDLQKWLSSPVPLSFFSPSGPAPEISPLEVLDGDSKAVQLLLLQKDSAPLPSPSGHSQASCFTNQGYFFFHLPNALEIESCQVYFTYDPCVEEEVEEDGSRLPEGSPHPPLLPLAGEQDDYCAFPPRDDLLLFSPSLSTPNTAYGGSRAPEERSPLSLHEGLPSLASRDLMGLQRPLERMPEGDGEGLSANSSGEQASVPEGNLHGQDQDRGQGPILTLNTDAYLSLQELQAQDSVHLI
Sequence of biotinylated mouse IL-2Rα (mouse) (P01590 22-268): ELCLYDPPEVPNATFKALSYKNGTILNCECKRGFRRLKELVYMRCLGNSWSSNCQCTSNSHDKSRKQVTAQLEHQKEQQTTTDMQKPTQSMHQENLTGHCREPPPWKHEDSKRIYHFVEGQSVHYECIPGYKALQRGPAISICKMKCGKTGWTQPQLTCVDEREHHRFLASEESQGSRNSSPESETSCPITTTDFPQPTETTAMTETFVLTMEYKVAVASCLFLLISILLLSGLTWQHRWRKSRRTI

On to “IL-2/602 complex (human IL-2 mixed with 602 antibody) (from UniProt P60568 21-153)”, for which the dissociation constant (Kd) was 74 nM in assay [1]; 6 nM in assay [2]; 168 nM in assay [3]; 103 nM in assay [4]; 5.2 nM in assay [5]; 13.3 nM in assay [6]. The Kd worked out at 0.3 nM in assay [7], 10.6 nM in assay [8], 0.55 nM in [9] and 3.89 nM in assay [10].

In the case of “human IL-2 (amino acids 1-133), soluble (from UniProt P60568 21-153) (ligand)”, the values for the Kd in [11] and in assay [9] were 7.3 nM and 3.2 nM, respectively.

As for “602 immunocytokine with 35-amino-acid linker (IL-2-(G4S)7-602 light chain + 602 heavy chain) (from UniProt P60568 21-153)”, the dissociation constant Kd is over 2000 nM in [1]; 5.4 nM in [2]; over 2000 nM in [3]; over 2000 nM in assay [4]; over 2000 nM in assay [11]; 5 nM in assay [5]. In addition, the dissociation constant Kd worked out at 0.26 nM in [7], 143 nM in assay [8] and 4.22 nM in assay [10].

As for “602 immunocytokine with 25-amino-acid linker (IL-2-(G4S)5-602 light chain + 602 heavy chain) (from UniProt P60568 21-153)”, the dissociation constant (Kd) in assay [4] is 941 nM; in assay [11], over 2000 nM; in assay [8], 76.9 nM; in assay [10], 3.66 nM.

For “Control immunocytokine (IL-2-(G4S)7-light chain of anti-fluorescein antibody 4-4-20 + 4-4-20 heavy chain) (from UniProt P60568 21-153)”, the equilibrium dissociation constant (Kd) in assay [12] is over 10000 nM; in assay [3] it was over 2000 nM; in assay [4], over 2000 nM; in [11] it was 5.2 nM; in assay [13], 4.74 nM; in [14], over 10000 nM. Besides, the dissociation constant Kd in [10] turned out to be 0.18 nM.

Turning to “602 immunocytokine with 15-amino-acid linker (IL-2-(G4S)3-602 light chain + 602 heavy chain) (from UniProt P60568 21-153)”, the Kd in [4] was 905 nM; in assay [11], over 2000 nM; in assay [5], 8.4 nM; in assay [8], 88.3 nM.

One may read the Kd as the equilibrium constant for the complex coming apart.

(Values after article PMC11457862.)
